Data: PMC3620054, “Lsb1 Is a Negative Regulator of Las17 Dependent Actin Polymerization Involved in Endocytosis” (PLoS ONE, 2013)

Molecular target: T1, Las17 (purified recombinant) (S. cerevisiae, UniProt Q12446 1-633)
T1 construct: Las17, the WASP homolog of S. cerevisiae; also called WASP homolog; source: recombinant, purified, produced as reported [25], [45], [46]
Test: SPR; Las17 coupled via an amino group to a CM5 chip, Biacore3000, 25°C, HBS-EP buffer, Lsb1, Lsb2 or their SH3 domains at 25 nM to 10 µM
Conditions: both partners purified

T1 sequence (Q12446 whole entry): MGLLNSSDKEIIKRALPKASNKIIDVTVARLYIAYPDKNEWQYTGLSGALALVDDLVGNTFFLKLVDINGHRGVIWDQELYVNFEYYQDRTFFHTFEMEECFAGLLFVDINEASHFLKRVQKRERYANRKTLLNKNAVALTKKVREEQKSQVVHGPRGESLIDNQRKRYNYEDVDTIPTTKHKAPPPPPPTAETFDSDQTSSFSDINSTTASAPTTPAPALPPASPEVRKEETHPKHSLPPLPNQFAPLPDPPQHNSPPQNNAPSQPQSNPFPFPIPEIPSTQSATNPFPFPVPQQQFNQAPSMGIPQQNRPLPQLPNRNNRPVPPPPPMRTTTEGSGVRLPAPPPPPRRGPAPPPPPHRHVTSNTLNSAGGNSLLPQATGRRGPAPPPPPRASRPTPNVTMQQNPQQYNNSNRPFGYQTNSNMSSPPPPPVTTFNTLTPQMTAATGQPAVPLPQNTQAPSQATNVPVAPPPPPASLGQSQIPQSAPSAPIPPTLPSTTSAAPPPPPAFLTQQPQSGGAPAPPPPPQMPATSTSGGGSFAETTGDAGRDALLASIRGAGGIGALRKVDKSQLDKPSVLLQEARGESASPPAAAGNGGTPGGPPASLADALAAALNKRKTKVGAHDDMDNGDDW

B1: SH3-Lsb1 (purified, GST cleaved off) (domain or fragment, S. cerevisiae, UniProt P53281 57-109, looked up)
chain: YVEALYDFEAQQDGDLSLKTGDKIQVLEKISPDWYRGKSNNKIGIFPANYVKP
notes: Lsb1, S. cerevisiae, SH3 domain, residues 57-109, from pGEX4T-1; also called SH3 domain of Lsb1; source: E. coli BL21, purified (glutathione Sepharose, thrombin cleavage, size exclusion chromatography)
Kd: 792 nM

B2: SH3-Lsb2 (purified, GST cleaved off) (domain or fragment, S. cerevisiae, UniProt Q06449 59-110, looked up)
chain: VEALYQFDPQQDGDLGLKPGDKVQLLEKLSPEWYKGSCNGRTGIFPANYVKP
notes: Lsb2 (Pin3), S. cerevisiae, SH3 domain, residues 59-110, from pGEX4T-1; also called SH3 domain of Lsb2; source: E. coli BL21, purified (glutathione Sepharose, thrombin cleavage, size exclusion chromatography)
Kd: 730 nM

B3: Lsb1 (purified, GST cleaved off) (natural protein, S. cerevisiae, UniProt P53281 1-241, looked up)
chain: MSASLVNRSLKNIRNELEFLKESNVISGDIFELINSKLPEKWDGNQRSPQNADTEEYVEALYDFEAQQDGDLSLKTGDKIQVLEKISPDWYRGKSNNKIGIFPANYVKPAFTRSASPKSAEAASSSTVSRPSVPPPSYEPAASQYPSQQVSAPYAPPAGYMQAPPPQQQQAPLPYPPPFTNYYQQPQQQYAPPSQQAPVEAQPQQSSGASSAFKSFGSKLGNAAIFGAGSAIGSDIVNSIF
notes: Lsb1, S. cerevisiae, full-length, from pGEX4T-1; also called full-length Lsb1; source: E. coli BL21, purified (glutathione Sepharose, thrombin cleavage, size exclusion chromatography)
Kd: 30 nM

B4: Lsb2 (purified, GST cleaved off) (natural protein, S. cerevisiae, UniProt Q06449 1-215, looked up)
chain: MSASLINRSLTNIRTELDFLKGSNVISNDVYDQINKSLPAKWDPANAPRNASPASLEYVEALYQFDPQQDGDLGLKPGDKVQLLEKLSPEWYKGSCNGRTGIFPANYVKPAFSGSNGPSNLPPPPQYKAQELQQIPTQNSAASSYQQQPFPPPSTNYYQQPQQQPQQAPPPQQQQQQQQHQSSHSHLKSFGSKLGNAAIFGAGASIGSDIVNNIF
notes: Lsb2 (Pin3), S. cerevisiae, full-length, from pGEX4T-1; also called full-length Lsb2; Pin3; source: E. coli BL21, purified (glutathione Sepharose, thrombin cleavage, size exclusion chromatography)
Kd: 79 nM
